T1: mouse PTH1R overexpressed on CHO cells (mouse, UniProt P41593 27-591)
T1 sequence (looked up): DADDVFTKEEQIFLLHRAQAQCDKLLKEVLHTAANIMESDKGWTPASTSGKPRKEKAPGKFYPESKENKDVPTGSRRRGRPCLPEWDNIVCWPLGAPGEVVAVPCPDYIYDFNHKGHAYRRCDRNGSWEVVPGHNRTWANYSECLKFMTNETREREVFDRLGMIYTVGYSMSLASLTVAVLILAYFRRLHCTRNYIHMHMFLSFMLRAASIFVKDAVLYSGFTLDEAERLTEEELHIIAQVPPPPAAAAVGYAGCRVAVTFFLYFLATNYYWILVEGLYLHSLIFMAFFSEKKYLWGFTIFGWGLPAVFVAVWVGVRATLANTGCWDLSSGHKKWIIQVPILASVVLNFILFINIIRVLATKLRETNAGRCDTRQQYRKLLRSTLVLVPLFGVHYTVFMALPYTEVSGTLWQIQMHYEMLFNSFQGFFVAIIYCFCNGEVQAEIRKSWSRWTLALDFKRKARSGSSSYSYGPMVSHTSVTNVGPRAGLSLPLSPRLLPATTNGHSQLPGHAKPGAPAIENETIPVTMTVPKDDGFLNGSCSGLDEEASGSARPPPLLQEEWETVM

T2: human PTH1R overexpressed on CHO cells (human, UniProt Q03431 27-593)
T2 sequence (looked up): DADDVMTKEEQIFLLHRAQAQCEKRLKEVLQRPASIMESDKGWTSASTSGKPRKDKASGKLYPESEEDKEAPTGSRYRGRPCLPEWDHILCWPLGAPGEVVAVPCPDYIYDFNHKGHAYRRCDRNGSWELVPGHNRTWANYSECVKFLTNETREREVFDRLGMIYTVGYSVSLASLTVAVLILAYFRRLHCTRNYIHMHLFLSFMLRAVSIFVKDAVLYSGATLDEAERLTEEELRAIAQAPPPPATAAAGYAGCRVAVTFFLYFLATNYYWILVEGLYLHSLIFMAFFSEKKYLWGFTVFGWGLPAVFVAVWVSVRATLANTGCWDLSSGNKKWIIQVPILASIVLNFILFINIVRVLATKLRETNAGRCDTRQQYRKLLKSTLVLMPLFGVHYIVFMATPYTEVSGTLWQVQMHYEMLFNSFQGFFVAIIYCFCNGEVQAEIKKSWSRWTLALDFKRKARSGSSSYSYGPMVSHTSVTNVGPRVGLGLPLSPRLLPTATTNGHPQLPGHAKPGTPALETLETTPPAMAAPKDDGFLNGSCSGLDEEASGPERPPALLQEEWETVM

T3: recombinant N-terminal extracellular domain of the human PTH1R receptor (human, UniProt Q03431 27-188, limits assumed)
T3 construct: domain: N-terminal extracellular domain; Bought reagent; also called N-ECD PTH1R; PTH1R N-terminal ECD
T3 sequence (looked up): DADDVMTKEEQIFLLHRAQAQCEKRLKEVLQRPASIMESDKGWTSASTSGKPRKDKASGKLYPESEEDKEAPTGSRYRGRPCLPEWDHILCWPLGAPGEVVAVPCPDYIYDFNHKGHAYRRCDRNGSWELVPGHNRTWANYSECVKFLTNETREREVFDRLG

T4: rat PTH1R on UMR106 cells (rat, UniProt P25961 27-591)
T4 construct: whole, on cells; also called UMR106 (Endogenous Rat PTH1R); native rat PTH1R
T4 sequence (looked up): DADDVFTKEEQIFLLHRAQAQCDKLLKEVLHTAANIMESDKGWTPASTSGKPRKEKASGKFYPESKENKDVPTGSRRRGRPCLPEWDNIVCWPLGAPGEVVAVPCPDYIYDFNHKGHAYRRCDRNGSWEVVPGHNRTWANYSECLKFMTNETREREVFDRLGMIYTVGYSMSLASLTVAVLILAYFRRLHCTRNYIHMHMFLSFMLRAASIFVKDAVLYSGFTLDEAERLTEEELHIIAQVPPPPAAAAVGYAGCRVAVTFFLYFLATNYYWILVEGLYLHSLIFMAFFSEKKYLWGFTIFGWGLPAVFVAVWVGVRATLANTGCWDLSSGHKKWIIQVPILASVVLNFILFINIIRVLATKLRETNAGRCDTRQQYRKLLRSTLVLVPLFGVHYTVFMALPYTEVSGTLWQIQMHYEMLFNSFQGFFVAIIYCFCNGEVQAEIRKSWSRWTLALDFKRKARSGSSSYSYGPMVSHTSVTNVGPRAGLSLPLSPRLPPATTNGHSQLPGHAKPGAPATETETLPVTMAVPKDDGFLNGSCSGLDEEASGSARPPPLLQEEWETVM

T5: human PTH1R on Saos-2 cells (endogenous) (human, UniProt Q03431 27-593)
T5 sequence (looked up): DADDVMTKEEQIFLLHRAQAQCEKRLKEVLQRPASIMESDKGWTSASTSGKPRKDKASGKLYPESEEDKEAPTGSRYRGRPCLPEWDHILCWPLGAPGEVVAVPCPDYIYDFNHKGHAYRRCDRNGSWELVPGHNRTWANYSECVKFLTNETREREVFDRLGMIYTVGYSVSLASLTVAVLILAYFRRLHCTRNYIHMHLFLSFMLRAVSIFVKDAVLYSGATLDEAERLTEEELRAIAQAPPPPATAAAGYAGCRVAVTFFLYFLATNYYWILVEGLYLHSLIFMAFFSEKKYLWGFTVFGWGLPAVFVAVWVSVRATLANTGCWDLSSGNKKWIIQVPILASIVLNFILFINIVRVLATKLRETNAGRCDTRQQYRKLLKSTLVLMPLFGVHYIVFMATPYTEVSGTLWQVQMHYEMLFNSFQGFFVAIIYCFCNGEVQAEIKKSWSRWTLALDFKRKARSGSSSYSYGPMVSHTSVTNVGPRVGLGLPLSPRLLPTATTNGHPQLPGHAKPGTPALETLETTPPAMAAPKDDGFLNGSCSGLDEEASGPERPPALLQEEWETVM

B1: XPA.85.332 (antibody, V domains shown)
VH: QMQLVQSGAEVKKPGSSVKVSCKASGGTFSSYAISWVRQAPGQGLEWMGGIIPIFGTANYAQKFQGRVTITADESTSTAYMELSSLRSEDTAVYYCARGYVVARLWGQGTLVTVSS
VL: ETTLTQSPAFMSASVGDRVTITCQASQDINNFLNWYQQKPGKAPKFLIYDASNLEKGVPSKFSGRGSGTEFTLTISSLQPEDIATYYCQQYRDFPLTFGQGTRLEIK
notes: Light-chain-shuffled variant of XPA.85.012
B2: XPA.85.340 (antibody, V domains shown)
VH: EVQLVETGGGVVRPGGSLRLSCAASGFTFSSSAMSWVRQTPGKELQWVSAITPGGEGTYYADVVKGRFTISRDNSKDTLYLQMDSLRAEDTAVYYCARDLYGSYGDAFDIWGQGTLVTVSS
VL: SYVLTQPPSVSVAPGQTASITCSGDNLGEKFVSWYQQKAGQSPVLVIFEDNKRPSGIPERFAGSNSGNRATLTIRGTQAEDEADYYCQAWDSSWVFGGGTQLTVL
notes: Light-chain-shuffled variant of XPA.85.017
B3: XPA.85.338 (antibody, V domains shown)
VH: EVQLVETGGGVVRPGGSLRLSCAASGFTFSSSAMSWVRQTPGKELQWVSAITPGGEGTYYADVVKGRFTISRDNSKDTLYLQMDSLRAEDTAVYYCARDLYGSYGDAFDIWGQGTLVTVSS
VL: SYELTQPPSVSVAPGQTATITCSGDKLGDKYASWYQQKPGQSPVLVMFENRDRPSGIPDRFSGSNSGNTATLTISGTQAMDEADYYCQAWDSSTAWVFGGGTQLTVL
notes: as for B2

How the values were obtained:
[1] = biological target: T1, mouse PTH1R overexpressed on CHO cells; experiment: cell-based or functional assay
[2] = biological target: T2, human PTH1R overexpressed on CHO cells; experiment: cell-based or functional assay
[3] = biological target: T3, recombinant N-terminal extracellular …; experiment: SPR, IgG captured, ECD injected
Description: An anti-human IgG-Fc CMS sensor chip (GE Healthcare) was prepared using standard amine coupling as described by the manufacturer's protocol for the capture Ab on a BIACORE 4000 system (GE Healthcare). Briefly, the chip surface was activated with a 10 minute injection at 10 μL/minute of a freshly mixed 1:1 solution of 0.1 M N-Hydroxysuccinimide (NHS) and 0.4 M 1-Ethyl-3-(3-dimethylaminopropyl) carbodiimide hydrochloride (EDC). Following the activation injection, 15 ug/mL anti-human IgG-Fc antibody in acetate pH 4.5 was injected at 10 μL/minute for 10 minutes to achieve a high density capture surface. 7 minutes of 1M Ethanolamine hydrochloride-NaOH pH 8.5 was injected to block the surface. The NHS, EDC, and Ethanolamine used were from the BIACORE Amine Coupling Kit.
Kinetic Analysis was performed using HBS-EP+(Teknova) with 2.5 mg/mL BSA (Sigma Aldrich, St. Louis Mo.). Antibodies were diluted to 0.5 μg/mL and captured to achieve a surface density of 100 to 200 RU. […] Injections were performed at 30 μL/minute for 240 seconds with a 360 second dissociation time. Regeneration was then performed with one 60 second injection 3M MgCl.
The data were analyzed using BIACORE 4000 Evaluation Software and was double referenced by subtracting both the blank flow cell data and the averaged bracketing blank injections. The data was fit by simultaneously fitting the an off-rate (kd) and on-rate (kₐ), and calculating the KD as KD=kd/kₐ.

[4] = biological target: T4, rat PTH1R on UMR106 cells; experiment: flow cytometry, 1 hr at 4 C
[5] = biological target: T1, mouse PTH1R overexpressed on CHO cells; experiment: flow cytometry on CHO cells, 24 hr at 4 C
Description: (§1) To characterize antibody binding to PTH1R, cells were labeled with either CellTrace™ CFSE or CellTrace™ Violet. Unlabeled CHOK1 parent, CHO human PTH1R labeled with CellTrace™CFSE, and CHO mouse PTH1R labeled with CellTrace™Violet were pooled together and stained with increasing concentrations of antibody. Antibodies were incubated for 24 hr at 4° C. followed by two washes with FACS Buffer (0.5% BSA, 0.1% NaN3 in DPBS). Cells were then incubated with Allophycocyanin (APC) AffiniPure F(ab′)₂ Fragment Goat Anti-Human IgG (H+L) (Jackson ImmunoResearch, West Grove, Pa.) for 20 minutes at 4° C. Followed by two washes, cells were resuspended in FACS Buffer. Samples were acquired using BD Cytometer (BD Biosciences, San Jose, Calif.) and data were analyzed using FlowJo (FlowJo, LLC, Ashland, Oreg.) and Prism (GraphPad Software, La Jolla, Calif.).

[6] = biological target: T2, human PTH1R overexpressed on CHO cells; experiment: flow cytometry on CHO cells, 24 hr at 4 C
Description: as §1

[7] = biological target: T1, mouse PTH1R overexpressed on CHO cells; experiment: cell-based or functional assay; remark: listed apart in the source
[8] = biological target: T4, rat PTH1R on UMR106 cells; experiment: cell-based or functional assay
[9] = biological target: T5, human PTH1R on Saos-2 cells (endogenous); experiment: cell-based or functional assay
[10] = biological target: T2, human PTH1R overexpressed on CHO cells; experiment: cell-based or functional assay; remark: listed apart in the source

Row | Binder | IC50, inhibition of PTHrP(1-34)-induced cAMP accumulation [1] | IC50, inhibition of PTH(1-34)-induced cAMP accumulation [2] | IC50, inhibition of PTHrP(1-34)-induced cAMP accumulation [2] | Kd [3] | koff [3] | kon [3] | binding result [4] | EC50 [5] | EC50 [6] | EC50 of PTH(1-34), cAMP assay, with 267 nM IgG [7] | EC50 of PTH(1-34), cAMP assay, with 267 nM IgG [8] | EC50 of PTH(1-34), cAMP assay, with 267 nM IgG [9] | EC50 of PTHrP(1-34), cAMP assay, with 267 nM IgG [9] | EC50 of PTH(1-34), cAMP assay, with 267 nM IgG [10]
1 | B1 | 2.3 nM | 12.1 nM | 5.03 nM | 0.71 nM | 0.0017 s⁻¹ | 2.4e+06 M⁻¹ s⁻¹ | binds | – | – | – | – | – | – | –
2 | B2 | – | – | – | 0.75 nM | 0.0011 s⁻¹ | 1.4e+06 M⁻¹ s⁻¹ | – | 0.322 nM | 0.167 nM | 0.614 nM | 8.1 nM | 4.17 nM | 11.8 nM | 0.404 nM
3 | B3 | – | – | – | 0.43 nM | 0.00057 s⁻¹ | 1.3e+06 M⁻¹ s⁻¹ | – | 0.68 nM | 0.181 nM | 1.8 nM | 7.86 nM | 32.8 nM | 33 nM | 0.244 nM

— patent US20200317817A1 (XOMA US, published 2020)
